Measurements published in the supplement of paper PMC12667976.
± gives the standard error.

B1: library; numbered along this chain (parent)
chain: MATDAALRRLLRLHRTEIAVAVDSAFPLLHALADHDVVPEDKFQETLHLKEKEGCPQAFHALLSWLLTQDSTAILDFWRVLFKDYNLERYGRLQPILDSFPKDVDLSQPRKGRKPPAVPKALVPPPRLPTKRKASEEARAAAPAALTPRGTASPGSQLKAKPPKKPESSAEQQRLPLGNGIQTMSASVQRAVAMSSGDVPGARGAVEGILIQQVFESGGSKKCIQVGGEFYTPSKFEDSGSGKNKARSSSGPKPLVRAKGAQGAAPGGGEARLGQQGSVPAPLALPSDPQLHQKNEDECAVCRDGGELICCDGCPRAFHLACLSPPLREIPSGTWRCSSCLQATVQEVQPRAEEPRPQEPPVETPLPPGLRSAGEEVRGPPGEPLAGMDTTLVYKHLPAPPSAAPLPGLDSSALHPLLCVGPEGQQNLAPGARCGVCGDGTDVLRCTHCAAAFHWRCHFPAGTSRPGTGLRCRSCSGDVTPAPVEGVLAPSPARLAPGPAKDDTASHEPALHRDDLESLLSEHTFDGILQWAIQSMARPAAPFPS

Variants of: B1
Assay: AIRE transcriptional activation functional score (insulin promoter-GFP; nonsense median 0, synonymous median 1) (normalised score); higher = higher AIRE activity (more reporter activation)
Conditions: with insulin promoter-GFP reporter in HEK293
Outline: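 Using Bxb1 recombinase, codon-optimized NNN-codon libraries for three AIRE regions were inserted into Flp-In T-REx HEK293 landing-pad cells with an insulin core promoter-GFP reporter. After integrants (mCherry+, BFP−) were sorted at day 7 and expanded for 7 days, the top 10% GFP and unselected integrant populations underwent tile-sequencing. Functional scores are wild-type-subtracted enrichments of variants in select over non-select samples. A cutoff of 10 counts per million in non-select applied, and values were rescaled (nonsense median 0, synonymous median 1) and averaged over biological replicates.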

AIRE transcriptional activation functional score of substitutions, site by site:
S332: A 0.774 ± 0.14 | C 0.951 ± 0.11 | D 0.652 ± 0.32 | E 0.387 ± 0.16 | F 1.34 ± 0.16 | G 1.09 ± 0.12 | H 0.932 ± 0.096 | I 0.887 ± 0.28 | K 0.518 ± 0.046 | L 1.17 ± 0.25 | M -0.16 ± 0.054 | N 1.56 ± 0.1 | P 0.628 ± 0.17 | Q 0.542 ± 0.11 | R 1.04 ± 0.24 | T 1.23 ± 0.26 | V 1.3 ± 0.11 | W 1.41 ± 0.042 | Y 1.13 ± 0.22
G333: A 0.871 ± 0.34 | C 1.14 ± 0.053 | D 0.864 ± 0.14 | E 0.832 ± 0.22 | F 1.02 ± 0.16 | I 0.774 ± 0.32 | K 1.24 ± 0.25 | L 1.17 ± 0.33 | M 1.72 ± 0.15 | N 0.719 ± 0.62 | P 0.594 ± 0.3 | Q 0.597 ± 0.094 | R 1.08 ± 0.33 | S 0.365 ± 0.58 | T 0.561 ± 0.19 | V 1.05 ± 0.15 | W 1.82 ± 0.046 | Y 1.26 ± 0.36
T334: A 0.83 ± 0.38 | C 0.7 ± 0.29 | D 0.352 ± 0.11 | F 1.25 ± 0.23 | G 1.23 ± 0.26 | H 0.766 ± 0.4 | I 0.977 ± 0.26 | K 0.794 ± 0.15 | L 1.12 ± 0.21 | M 1.08 ± 0.054 | N 0.91 ± 0.15 | P 0.902 ± 0.28 | Q 0.621 ± 0.44 | R 1.06 ± 0.42 | S 0.928 ± 0.21 | V 0.952 ± 0.29 | W 1.39 ± 0.14 | Y 1.17 ± 0.19
W335: A 1.3 ± 0.48 | C 1.24 ± 0.1 | D 1.1 ± 0.21 | E 1.3 ± 0.14 | F 0.764 ± 0.1 | G 1.27 ± 0.12 | H 0.428 ± 0.28 | I 1.02 ± 0.12 | K 1.12 ± 0.3 | L 0.997 ± 0.24 | M 1.39 ± 0.12 | N 0.721 ± 0.19 | P 1.04 ± 0.19 | Q 1.19 ± 0.092 | R 1.29 ± 0.29 | S 1.27 ± 0.35 | T 1.26 ± 0.33 | V 1.24 ± 0.14 | Y 0.768 ± 0.46
R336: A 1.02 ± 0.3 | C 1.2 ± 0.12 | D 1.73 ± 0.24 | E 0.646 ± 0.25 | F 1.13 ± 0.43 | G 1.33 ± 0.33 | H 0.786 ± 0.042 | I 0.734 ± 0.31 | K 1.67 ± 0.098 | L 0.658 ± 0.29 | M 0.49 ± 0.24 | N 1.03 ± 0.2 | P 1.38 ± 0.26 | Q 0.346 ± 0.19 | S 1.04 ± 0.2 | T 0.895 ± 0.33 | V 0.812 ± 0.47 | W 0.655 ± 0.03 | Y 0.141 ± 0.34
C337: A 1.51 ± 0.18 | D 1.68 ± 0.34 | E 1.73 ± 0.059 | F 0.845 ± 0.028 | G 1.5 ± 0.28 | H 1.85 ± 0.1 | I 0.888 ± 0.13 | K 1.28 ± 0.17 | L 1.16 ± 0.089 | M 0.956 ± 0.099 | N 1.53 ± 0.22 | P 1.47 ± 0.19 | Q 1.5 ± 0.4 | R 1.12 ± 0.25 | S 1.33 ± 0.29 | T 1.42 ± 0.093 | V 1.13 ± 0.11 | W 0.733 ± 0.042 | Y 1.07 ± 0.12
S338: A 0.683 ± 0.25 | D 1.08 ± 0.17 | E 0.862 ± 0.16 | F 0.948 ± 0.13 | G 1.11 ± 0.23 | H 1.25 ± 0.079 | I 1.18 ± 0.27 | K 1.08 ± 0.12 | L 1.01 ± 0.18 | M 1.32 ± 0.11 | N 1.3 ± 0.079 | P 0.56 ± 0.23 | Q 0.916 ± 0.089 | R 1.2 ± 0.28 | T 1.21 ± 0.23 | V 0.911 ± 0.12 | W 0.904 ± 0.038 | Y 1.11 ± 0.13
S339: A 1.13 ± 0.22 | C 0.985 ± 0.18 | D 0.853 ± 0.26 | E 0.838 ± 0.15 | F 0.807 ± 0.069 | G 0.951 ± 0.37 | H 1.27 ± 0.26 | I 0.884 ± 0.15 | K 0.757 ± 0.12 | L 0.775 ± 0.22 | M 0.1 ± 0.043 | N 0.771 ± 0.44 | P 1.13 ± 0.22 | Q 1.16 ± 0.21 | R 1.11 ± 0.2 | T 1.12 ± 0.24 | V 0.99 ± 0.15 | W 0.962 ± 0.052 | Y 1.09 ± 0.096
C340: A 1.65 ± 0.13 | D 1.7 ± 0.12 | E 1.49 ± 0.15 | F 0.877 ± 0.032 | G 1.44 ± 0.13 | H 1.46 ± 0.078 | I 1.22 ± 0.088 | K 1.62 ± 0.11 | L 1.13 ± 0.11 | M 1.61 ± 0.023 | N 1.67 ± 0.053 | P 1.49 ± 0.32 | Q 1.33 ± 0.12 | R 1.31 ± 0.1 | S 1.52 ± 0.17 | T 1.71 ± 0.15 | V 1.42 ± 0.083 | W 0.727 ± 0.019 | Y 0.989 ± 0.045
L341: A 0.936 ± 0.45 | C 1.24 ± 0.16 | D 0.832 ± 0.14 | E 0.957 ± 0.14 | F 1.01 ± 0.089 | G 1.11 ± 0.15 | H 0.986 ± 0.11 | I 1.21 ± 0.14 | K 0.983 ± 0.25 | M 0.759 ± 0.046 | N 1.02 ± 0.053 | P 0.971 ± 0.16 | Q 1.08 ± 0.17 | R 1.16 ± 0.16 | S 0.767 ± 0.29 | T 1.03 ± 0.2 | V 0.917 ± 0.12 | W 1.32 ± 0.023 | Y 0.945 ± 0.15
Q342: A 0.362 ± 0.25 | C 1.09 ± 0.16 | D 0.916 ± 0.08 | E 0.971 ± 0.22 | F 1.08 ± 0.11 | G 0.963 ± 0.34 | H 0.916 ± 0.16 | I 1 ± 0.22 | K 1.04 ± 0.08 | L 0.929 ± 0.18 | M 1.09 ± 0.031 | N 0.925 ± 0.32 | P 0.83 ± 0.18 | R 0.876 ± 0.31 | S 1.13 ± 0.27 | T 0.546 ± 0.32 | V 0.754 ± 0.23 | W 1.73 ± 0.09 | Y 1.06 ± 0.13
A343: C 0.944 ± 0.16 | D 1.18 ± 0.15 | E 0.95 ± 0.23 | F 1.38 ± 0.48 | G 0.94 ± 0.21 | H 1.02 ± 0.16 | I 1.36 ± 0.074 | K 0.609 ± 0.059 | L 1.38 ± 0.24 | M 1.59 ± 0.066 | N 0.601 ± 0.21 | P 0.957 ± 0.096 | Q 0.485 ± 0.071 | R 0.816 ± 0.16 | S 0.938 ± 0.23 | T 1.13 ± 0.28 | V 1.03 ± 0.1 | W 1.93 ± 0.13 | Y 1.09 ± 0.17
T344: A 0.851 ± 0.38 | C 1.26 ± 0.26 | D 0.882 ± 0.3 | E 0.714 ± 0.21 | F 1.26 ± 0.16 | G 1.16 ± 0.29 | H 1.29 ± 0.11 | I 0.748 ± 0.15 | K 1.16 ± 0.08 | L 0.939 ± 0.34 | M 1.37 ± 0.031 | N 0.983 ± 0.14 | P 1.07 ± 0.27 | Q 1.12 ± 0.21 | R 1.08 ± 0.16 | S 1.06 ± 0.15 | V 0.896 ± 0.23 | W 1.1 ± 0.066 | Y 0.912 ± 0.1
V345: A 0.719 ± 0.2 | C 1.04 ± 0.15 | D 1.02 ± 0.18 | E 0.982 ± 0.059 | F 1.36 ± 0.035 | G 1.12 ± 0.068 | H 0.756 ± 0.36 | I 0.913 ± 0.24 | K 1.22 ± 0.21 | L 1.03 ± 0.23 | M 1.28 ± 0.08 | N 0.989 ± 0.34 | P 1.06 ± 0.22 | Q 0.581 ± 0.12 | R 1.14 ± 0.29 | S 0.912 ± 0.16 | T 1.24 ± 0.34 | W 1.52 ± 0.023 | Y 1.02 ± 0.18
Q346: A 0.913 ± 0.36 | C 0.884 ± 0.091 | D 1.46 ± 0.052 | E 1.18 ± 0.093 | F 0.819 ± 0.11 | G 1.13 ± 0.082 | H 1.3 ± 0.042 | I 1.01 ± 0.16 | K 0.899 ± 0.15 | L 1.2 ± 0.14 | M 1.29 ± 0.055 | N 0.737 ± 0.25 | P 1.12 ± 0.27 | R 1.03 ± 0.2 | S 1.06 ± 0.16 | T 1.02 ± 0.21 | V 0.378 ± 0.25 | W 1.73 ± 0.09 | Y 0.906 ± 0.29
E347: A 1 ± 0.18 | C 1.15 ± 0.025 | D 1.21 ± 0.29 | F 1.28 ± 0.059 | G 1.17 ± 0.13 | H 1.32 ± 0.28 | I 1.15 ± 0.12 | K 1.11 ± 0.076 | L 1.16 ± 0.24 | M 1.06 ± 0.099 | N 0.719 ± 0.25 | P 1.14 ± 0.2 | Q 0.943 ± 0.2 | R 1.23 ± 0.15 | S 1.12 ± 0.17 | T 1.26 ± 0.18 | V 0.892 ± 0.13 | W 1.24 ± 0.016 | Y 1.43 ± 0.062
V348: A 1.1 ± 0.16 | C 0.781 ± 0.12 | D 1.01 ± 0.076 | E 0.956 ± 0.17 | F 1 ± 0.03 | G 1.04 ± 0.15 | H 1.33 ± 0.23 | I 1.08 ± 0.076 | K 0.974 ± 0.081 | L 1.09 ± 0.22 | M 0.509 ± 0.035 | N 1.08 ± 0.14 | P 0.929 ± 0.38 | Q 0.65 ± 0.4 | R 1.19 ± 0.22 | S 0.865 ± 0.25 | T 1.04 ± 0.12 | W 1.37 ± 0.074 | Y 0.929 ± 0.047
Q349: A 0.994 ± 0.27 | C 1.1 ± 0.063 | D 0.985 ± 0.1 | E 1.04 ± 0.12 | F 0.896 ± 0.13 | G 1.14 ± 0.19 | H 0.951 ± 0.05 | I 1.05 ± 0.23 | K 1.06 ± 0.14 | L 1.1 ± 0.26 | M 0.852 ± 0.023 | N 0.61 ± 0.22 | P 0.847 ± 0.16 | R 0.95 ± 0.28
